From patent publication US20260091080A1 (CELOSIA THERAPEUTICS, published 2026) come the findings set out here.

Test [1] deals with YES-associated protein (YAP) (UniProt P46937 1-504). The test can be described thus: co-precipitation with expressed Fx.
A further test addresses FOXO1 (UniProt Q12778 1-655, limits assumed). The experiment in a line: co-precipitation with expressed Fx.
The target in test [2] is endogenous TDP-43 of murine N2a cells and mouse brain (mouse, UniProt Q921F2 1-414). The experiment in a line: co-immunoprecipitation from N2a cells and mouse brain.
Sequence of endogenous TDP-43 of murine N2a cells and mouse brain (Q921F2 whole entry): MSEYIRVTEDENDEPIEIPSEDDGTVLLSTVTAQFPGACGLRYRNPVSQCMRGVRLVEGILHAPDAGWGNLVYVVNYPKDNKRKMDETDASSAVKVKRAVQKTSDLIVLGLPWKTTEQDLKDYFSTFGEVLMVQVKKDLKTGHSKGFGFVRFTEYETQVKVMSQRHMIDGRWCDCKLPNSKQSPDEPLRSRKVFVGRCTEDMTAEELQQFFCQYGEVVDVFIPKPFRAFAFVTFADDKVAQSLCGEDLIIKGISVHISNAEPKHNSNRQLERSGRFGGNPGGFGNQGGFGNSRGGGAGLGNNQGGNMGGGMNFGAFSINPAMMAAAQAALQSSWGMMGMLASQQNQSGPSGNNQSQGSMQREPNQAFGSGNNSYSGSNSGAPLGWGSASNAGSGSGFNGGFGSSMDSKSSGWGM

Sequence of YES-associated protein (YAP) (P46937 whole entry): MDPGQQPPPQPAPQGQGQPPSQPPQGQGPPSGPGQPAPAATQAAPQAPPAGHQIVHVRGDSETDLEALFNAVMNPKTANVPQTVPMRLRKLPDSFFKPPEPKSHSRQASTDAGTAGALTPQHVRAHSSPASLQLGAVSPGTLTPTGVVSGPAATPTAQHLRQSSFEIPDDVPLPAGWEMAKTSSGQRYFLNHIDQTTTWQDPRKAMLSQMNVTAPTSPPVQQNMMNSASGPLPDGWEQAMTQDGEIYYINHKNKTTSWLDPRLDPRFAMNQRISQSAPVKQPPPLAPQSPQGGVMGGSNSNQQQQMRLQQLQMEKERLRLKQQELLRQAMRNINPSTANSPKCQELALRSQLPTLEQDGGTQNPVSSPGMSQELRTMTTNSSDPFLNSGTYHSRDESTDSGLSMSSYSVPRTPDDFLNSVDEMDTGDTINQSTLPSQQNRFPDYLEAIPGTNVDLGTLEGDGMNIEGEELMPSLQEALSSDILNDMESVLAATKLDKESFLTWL
Sequence of FOXO1 (Q12778 whole entry): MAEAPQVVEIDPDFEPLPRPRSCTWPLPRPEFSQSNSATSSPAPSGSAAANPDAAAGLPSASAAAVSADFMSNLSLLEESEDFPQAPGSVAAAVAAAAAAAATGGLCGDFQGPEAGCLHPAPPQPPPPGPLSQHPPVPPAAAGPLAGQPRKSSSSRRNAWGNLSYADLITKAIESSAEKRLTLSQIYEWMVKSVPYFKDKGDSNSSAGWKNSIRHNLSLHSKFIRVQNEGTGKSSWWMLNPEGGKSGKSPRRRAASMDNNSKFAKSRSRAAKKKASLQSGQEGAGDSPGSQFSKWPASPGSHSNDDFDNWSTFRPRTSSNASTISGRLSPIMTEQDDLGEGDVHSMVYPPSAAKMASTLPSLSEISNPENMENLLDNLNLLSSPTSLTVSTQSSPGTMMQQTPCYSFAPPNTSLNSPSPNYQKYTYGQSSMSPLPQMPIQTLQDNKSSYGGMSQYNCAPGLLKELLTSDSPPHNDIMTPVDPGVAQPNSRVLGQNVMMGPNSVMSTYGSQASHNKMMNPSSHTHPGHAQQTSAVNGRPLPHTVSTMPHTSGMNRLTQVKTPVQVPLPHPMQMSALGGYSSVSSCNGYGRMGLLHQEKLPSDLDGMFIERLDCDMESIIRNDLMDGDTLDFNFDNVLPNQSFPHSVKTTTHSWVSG

Regarding GDDRKQTIDNSQGAYQEAFDISKKEMQPTH (not shown: V5 tag) [14-3-3θ-Fx-V5 (α-helix 6 (αF) of 14-3-3θ alone)], the binding result (in test [1]; in the test with FOXO1) was “no binding” throughout.

B1: endogenous 14-3-3θ of murine N2a cells and mouse brain (other, UniProt P68254 1-245, looked up)
chain: MEKTELIQKAKLAEQAERYDDMATCMKAVTEQGAELSNEERNLLSVAYKNVVGGRRSAWRVISSIEQKTDTSDKKLQLIKDYREKVESELRSICTTVLELLDKYLIANATNPESKVFYLKMKGDYFRYLAEVACGDDRKQTIENSQGAYQEAFDISKKEMQPTHPIRLGLALNFSVFYYEILNNPELACTLAKTAFDEAIAELDTLNEDSYKDSTLIMQLLRDNLTLWTSDSAGEECDAAEGAEN
On to B1, for which the binding result in test [2] is listed as “binds”.
